The values that follow are results of earlier work, collected in publication PMC9074927.

pKd: −log10 of the molar value. Where two headings read alike, the source gives them in different places.

One may read the pKd as −log10 of the Kd, conventionally taken in molar units.

Data set [1] deals with histone H3 (Homo sapiens) (UniProt P68431).
Data set [2] has the same target. This is another data set of the same source.

In the case of CBX1 chromodomain (from UniProt P83916), in data set [1], the pKd was 6.22. “CBX1 eReader chromodomain (from UniProt P83916)”: the pKd in data set [2] is 6.89.
